Results published in patent publication US20220112288A1 (published 2022).

These binders were tested against T1, Rhesus macaque CD4-HIS (Acro Biosystems, Cat. CD4-C52H7) (rhesus macaque, UniProt P16003 26-390) (assay: BLI Octet, mAb on anti-mouse Fc sensor, rhesus CD4-HIS 25-100 nM, 1:1 global fit;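 further: purified antibodies captured at 10 µg/mL, rhesus CD4 analyte run as a three-concentration serial dilution, irrelevant antibody as reference control, one kinetic constant set per antibody from global fitting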).
T1 construct: Bought reagent; also called Rhesus CD4; rhesus CD4-HIS; not shown: His tag
T1 sequence (P16003 26-390 limits assumed): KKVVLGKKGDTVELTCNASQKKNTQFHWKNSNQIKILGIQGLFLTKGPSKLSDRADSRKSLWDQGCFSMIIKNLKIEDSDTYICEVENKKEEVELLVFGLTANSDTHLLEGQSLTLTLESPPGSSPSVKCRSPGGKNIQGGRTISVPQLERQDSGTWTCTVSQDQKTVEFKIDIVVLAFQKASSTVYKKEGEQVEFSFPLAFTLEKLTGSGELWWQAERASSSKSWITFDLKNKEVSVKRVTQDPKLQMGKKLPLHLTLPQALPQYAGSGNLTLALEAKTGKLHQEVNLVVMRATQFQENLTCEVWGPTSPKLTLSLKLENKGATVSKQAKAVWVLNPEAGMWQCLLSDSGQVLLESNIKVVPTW

Binder | Kd [nM] | Response | koff [s⁻¹] | kon [M⁻¹ s⁻¹]
75110_01L08A (antibody, V domains shown, Tested as antibody purified from AlivaMab Mouse hybridoma supernatant (captured by anti-mouse IgG Fc)) VH: QVQLQESGPGLVKPSETLSLTCTVSGGSISHYYWSWIRQPPGKGLEWIGYIHYSGTTNYNPSLKSRVTISVDTSKNQLSLKLRSVTAADTAVYYCARDQGFSSGGMDVWGQGTTVTVSS VL: not shown | 8.1 | 0.06 | 0.0011 | 140000
75110_02K11A (antibody, V domains shown, Tested as antibody purified from AlivaMab Mouse hybridoma supernatant (captured by anti-mouse IgG Fc)) VH: QVQLQESGPGLVKPSQTLSLTCTVSGGSISSGFYYWTWIRQHPGKGLEWIGYISYSGNTYYNPSFKSRLTISVDTSKSQFSLKLSSVTAADTAVYYCARDRPSNFDAFDIWGQGTMVTVSS VL: not shown | 26 | 0.13 | 0.0015 | 59000
75110_02E08A (antibody, V domains shown, Tested as antibody purified from AlivaMab Mouse hybridoma supernatant (captured by anti-mouse IgG Fc)) VH: QVQLQESGPGLVKPSETLSLTCTVSGGSISTYYWTWIRQPAGKGLEWIGRVYTSGDTNYNPSLKSRVAMSLDTSKNQFSLKLSSVTAADTAVYYCARDSGALYSWNYGDAFDIWGQGTMVTVSS VL: DIQMTQSPSAMSASVGDRVTITCRASQDISNYLAWFQQKPGKVPKRLIYAASSLQSGVPSRFSGSGSGTEFTLTISSLQPEDFATYYCLQHNSYPRTFGQGTKVEIK | 12 | 0.04 | 0.00091 | 79000
75110_02I16A (antibody, V domains shown, Tested as antibody purified from AlivaMab Mouse hybridoma supernatant (captured by anti-mouse IgG Fc)) VH: QVQLQQWGAGLLKPSETLSLTCDVYGGSFSGYYWTWIRQPPGKGLEWIGEINHSGTTNSNPSLKSRVTISVDTSKSQFSLRLSSVTAADTAVYFCTRELNWFDPWGQGTLVTVSS VL: DIQMTQSPSSVSASVGDRVTITCRASQDIANWLAWYQQKPGKAPQLLIYAASSLLGGVPSRFSGSGSGADFTLTISSLHPEDFATYYCQQANSFPYTFGQGTKLEIK | 37 | 0.14 | 0.0092 | 250000
75110_02E22A (antibody, V domains shown, Tested as antibody purified from AlivaMab Mouse hybridoma supernatant (captured by anti-mouse IgG Fc)) VH: QVQLQESGPGLVKPSETLSLTCTVSGGSISSFYWSWIRQPAGKGLEWIGRIYTSGSTNYNPSLKSRVTMSVDTSKNQFSLKLSSVTAADTAVYYCARELEKRNYYGMDVWGQGTTVTVSS VL: DIQMTQSPSSLSASVGDRVTITCQASHDISNYLNWYQQKPGKAPKLLIFDASTLETGVPSRFSGSGSGTYFTFTIRSLQPEDIATYYCQQYDSLPLTFGGGTKVEIK | 51 | 0.15 | 0.0044 | 87000
75110_01H18A (antibody, V domains shown, Tested as antibody purified from AlivaMab Mouse hybridoma supernatant (captured by anti-mouse IgG Fc)) VH: QVQLQQWGAGLLKPSETLSLTCAVYGGSFSGYYWSWIRQSPGKGLEWIGEINQSGSTNYNPSLKSRVTISVDTSKNQFSLKLSSVTAADTAVYYCARVINWFDSWGQGTLVTVSS VL: DIQMTQSPSSVSASVGDRVTITCRASQGISSWLAWYQQKPGKAPKLLIYAASSFQSGVPSRFSGSGSGTDFTLTISSLQTEDFATYYCQQANSFPYTFGQGTRLEIK | 130 | 0.11 | 0.017 | 130000
75110_03B16A (antibody, V domains shown, Tested as antibody purified from AlivaMab Mouse hybridoma supernatant (captured by anti-mouse IgG Fc)) VH: EVQLVESGGGLVQPGGSLRLSCAASGFTFSSYWMSWVRQAPGKGLEWVANINEDGSEKNYVDSVKGRFTISRDNAKNSLCLQLNSLRAEDTAVYHCAREGGQWLALDYWGQGTLVTVSS VL: DIQMTQSPSSVSASVGDRVNITCRASQGIRSWLAWYQQKPGKTPKLLICGASSLQSGVPSRFSGSGSGTDFTLTISSLQPEDFATYYCQQANSFPWTFGQGTTVEIK | 23 | 0.19 | 0.004 | 170000
75110_01J09A (antibody, V domains shown, Tested as antibody purified from AlivaMab Mouse hybridoma supernatant (captured by anti-mouse IgG Fc)) VH: EVQLVESGGGLVQPGGSLRLSCVASGFTFSSYWMSWVRQAPGKGLEWVANTKEDGSDKYYVDSVKGRFTICRDNAKNSLYLQMNSLRAEDTAVYYCAREGGQWLALDYWGQGTLVTVSS VL: DIQMTQSPSSVSASVGDRVTINCRASQGISSWLAWYQQKPGKAPNLLIFGASSLQSGVPSRFSGSGFGTDFSLTITTLQPEDFATYHCQQANSFPWTFGQGTKVEIK | 70 | 0.17 | 0.0032 | 46000

More lines, now with the values ahead:

Kd [nM] | Response | koff [s⁻¹] | kon [M⁻¹ s⁻¹] | Binder
2.4 | 0.27 | 0.00022 | 92000 | 75110_04G16A (antibody, V domains shown, Tested as antibody purified from AlivaMab Mouse hybridoma supernatant (captured by anti-mouse IgG Fc)) VH: QVQLQESGPGLVKPSQTLSLTCTVSGDSISSGYYYWSWIRQHPGKGLEWIGYISYSGSTYYNPSLKSRLTISVNTSKNQFSLKLSSLTAADTAVYYCARDRPSNFDAFDIWGQGTMVTVSS VL: EIVLTQSPGTLSLSPGERATLSCRASQSVGSTYLAWYQQKPGQAPRLLIYGAFSRATGIPDRFSGSGSGTDFTLTISRLEPEDFAVYYCQQYGSSPLTFGPGTKVDIK
2.3 | 0.06 | 4.9e-05 | 21000 | 75110_05E05A (antibody, V domains shown, Tested as antibody purified from AlivaMab Mouse hybridoma supernatant (captured by anti-mouse IgG Fc)) VH: QVQLQESGPGLVKPSETLSLTCTVSGGSIGSYYWSWIRQPAGKGLEWIGRIYTSGSTNYNPSLKSRVTMSFDTSKNQFSLKLNSVTAADTAVYYCATDGGVGDSLDYWGQGTLVTVSS VL: DIVMTQTPLSLPVTPGEPASISCRSSQSLLDSDDGNTYLDWYLQKPGQSPQLLIYTLSYRASGVPDRFSGSGSGTDFTLKISRVEAEDVGVYYCMQHIEFPFTFGPGTKVDIK
1.7 | 0.18 | 0.0002 | 120000 | 75110_04H17A (antibody, V domains shown, Tested as antibody purified from AlivaMab Mouse hybridoma supernatant (captured by anti-mouse IgG Fc)) VH: QVQLQESGPGLVKPSETLSLTCTVSGGSISTYYWSWIRQSAGKGLEWIGRIYTSERPNYNPSLKSRVTMSVDTSKNQFSLKLNSVSAADTAVYYCARELERPYYYGMDVWGQGTTVTVSS VL: DVQMTQSPSSLSASVGGRVTITCQASQDISNYLNWYQQKPGKAPKLLIYYASNLETGVPSRFSGSGSGTDFTFTISSLQPEDFATYYCQQYDNLPLTFGGGTKVEIK
12 | 0.13 | 0.0017 | 140000 | 75110_04D20A (antibody, V domains shown, Tested as antibody purified from AlivaMab Mouse hybridoma supernatant (captured by anti-mouse IgG Fc)) VH: QVQLQESGPGLVKPSETLSLTCTVSNGSISDYYWSWIRQPAGKGLEWIGRIYTSGSTNYNPSLKSRITMSVDTSKNQFSLELSSVTAADTAVYYCARELERYYFYGVDVWGQGTTVTVSS VL: not shown
18 | 0.26 | 0.0048 | 270000 | 75110_04B08A (antibody, V domains shown, Tested as antibody purified from AlivaMab Mouse hybridoma supernatant (captured by anti-mouse IgG Fc)) VH: QVQLVESGGGVVQPGRSLRLSCTASGFNFINYGIHWVRQAPGKGLEWVTIIWYDGSKKYYADSVKGRFAISRDNSKNTLYLQMNSLRAEDTAVYYCAREDDWNDGLAYWGQGTLVTVSS VL: AIQMTQSPSSLSASVGDRVTITCRASQDIRNDLGWYQQKPGKAPNLLIYAASNLQSGVPSRFSGSGSGTDFTLTISSLQPEDFATYYCLQDSNYPRTFGQGTKVEIK
6.1 | 0.04 | 0.00061 | 100000 | 75110_03I08A (antibody, V domains shown, Tested as antibody purified from AlivaMab Mouse hybridoma supernatant (captured by anti-mouse IgG Fc)) VH: QVQLQESGPGLVKPSETLSLTCTVSGGSISSYYWSWIRQPPGKGLEWIGYIYYSGSTNYNPSLKSRVTISVDTSKNQFSLKLSSVTAADTAVYYCAREGEQWFYGLDVWGQGTTVTVSS VL: EIVLTQSPGTLSLSPGERATLSCRASQSVSSTYLAWYQQKPGQAPRLLIYGSSSRATGIPDRFSGSGSGTDFTLTISRLEPEDFAVYYCQQYGNSFPITFGQGTRLEIK
4.7 | 0.14 | 0.002 | 420000 | 75110_05B13A (antibody, V domains shown, Tested as antibody purified from AlivaMab Mouse hybridoma supernatant (captured by anti-mouse IgG Fc)) VH: QVLLEQWGAGLLKPSETLSLTCAVYGGSFSGYYWTWIRQPPGKGLEWIGEINHRGSTNYNPSLKSRVTISIDTSKNQFSLKVKSVTAADTAMYYCTRPDSNWFDPWGQGTLVTVSS VL: DIQMTQSPSSVSASVGDRVTITCRASQDISNWLAWYQQKPGKAPKLLIFAASSLQSGVPSRFSGSGSGTDFTLTISSLQPEDFATYYCQQANSFPLTFGGGTKVEIK
60 | 0.12 | 0.0091 | 150000 | 75110_04P08A (antibody, V domains shown, Tested as antibody purified from AlivaMab Mouse hybridoma supernatant (captured by anti-mouse IgG Fc)) VH: QVQLQQWGAGLLKPSETLSLTCAVYGGSLSGYYWSWIRQSPGKGLEWIGEINQSGSTNYNPSLKSRVTISVDTSKDQFSLRLTSVTAADTAVYYCTRVLNWFDPWGRGTLVTVSS VL: DIQMTQSPSSVSASVGDRVTLTCRASQDISNWLAWYQQKPGKAPKLLIYAASSLQSGVPSRFSGSGSGTDFTLTISSLQTEDFATYYCQQANSFPYTFGQGTKLEIK
9.8 | 0.18 | 0.0027 | 280000 | 75110_03C01A (antibody, V domains shown, Tested as antibody purified from AlivaMab Mouse hybridoma supernatant (captured by anti-mouse IgG Fc)) VH: QVQLQQWGAGLLKPSETLSLTCAVYGGSFSGYYWSWIRQSPGKGLEWIGEINQSGSTNYNPSLKSRVTISVDTSKDQFSLKLSSVTAADTAVYYCARVINWFDSWGQGSLVTVSS VL: DIQMTQSPSSVSASVGDRVTITCRASQGISSWLAWYQQKPGNAPKLLIYDASSFQSGVPSRFSGSGSGTDFTLTISSLQTEDFATYYCQQANSFPYTFGQGTKLEIK
6.7 | 0.03 | 0.0079 | 1.2e+06 | 75110_05E13A (antibody, V domains shown, Tested as antibody purified from AlivaMab Mouse hybridoma supernatant (captured by anti-mouse IgG Fc)) VH: EVQLVESGGDLVKPGGSLRLSCAASGFSFSNAWMSWVRQAPGKGLEWVGRVESKTDGGTTDYAAPVKDRFTISRDDSKYTLYLQMNSLKTEDSAVYYCTIGGGFGLELYGFFDYWGQGTLVTVSS VL: DIQMTQSPSTLSASVGDRVTITCRASQSISSWLAWYQQKPGKAPMLLIYKASSLESGVPSRFSGSGSGTEFTLTISSLQPDDFATYYCLQYNSYYTFGQGTKLEIK

What follows are binders tested against T2, Recombinant human CD4 (R&D Systems, Cat. 10327-CD) (human, UniProt P01730 26-390, limits assumed) (assay: BLI Octet, non-clonal supernatant on AMC sensor, 100 nM human CD4, 1:1 local fit;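 further: Single-concentration kinetics per supernatant, with the 1:1 model fitted across both the association and dissociation phases of the sensorgram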).
T2 construct: Bought reagent; also called huCD4

Kd [nM] | koff [s⁻¹] | kon [M⁻¹ s⁻¹] | Binder
7.47 | 0.00134 | 179000 | 75110_14P08A (antibody, V domains shown, Tested as non-clonal AlivaMab Mouse Kappa hybridoma supernatant, captured by anti-mouse IgG Fc sensor) VH: QVQLQESGPGLVKSSETLSLTCTDSGDSIRSYYWNWIRQPAGKGLEWIGRIYASGSTNYNPSLKSRVIMSADTSKNRFSLKLSSVTAADTAVYYCARDGGVGDSLDYWGQGTLVTVSS VL: DIVMTQTPLSLPVTPGEPASISCRSSQSLLDSDDGNTYLDWYLQKPGQSPQLLIYTLSYRASGVPDRFSGSGSGTDFTLKISRVEAEDVGVYYCMQRIEFPFTFGPGTKVDIK
